T1: fibrin aggregates (Homo sapiens, UniProt P02671)
T1 construct: Thrombin cleaves the α and γ subunits of fibrin, exposing fibrinopeptide A (Knob A) and fibrinopeptide B (Knob B)
T1 sequence (P02671 36-866 limits assumed): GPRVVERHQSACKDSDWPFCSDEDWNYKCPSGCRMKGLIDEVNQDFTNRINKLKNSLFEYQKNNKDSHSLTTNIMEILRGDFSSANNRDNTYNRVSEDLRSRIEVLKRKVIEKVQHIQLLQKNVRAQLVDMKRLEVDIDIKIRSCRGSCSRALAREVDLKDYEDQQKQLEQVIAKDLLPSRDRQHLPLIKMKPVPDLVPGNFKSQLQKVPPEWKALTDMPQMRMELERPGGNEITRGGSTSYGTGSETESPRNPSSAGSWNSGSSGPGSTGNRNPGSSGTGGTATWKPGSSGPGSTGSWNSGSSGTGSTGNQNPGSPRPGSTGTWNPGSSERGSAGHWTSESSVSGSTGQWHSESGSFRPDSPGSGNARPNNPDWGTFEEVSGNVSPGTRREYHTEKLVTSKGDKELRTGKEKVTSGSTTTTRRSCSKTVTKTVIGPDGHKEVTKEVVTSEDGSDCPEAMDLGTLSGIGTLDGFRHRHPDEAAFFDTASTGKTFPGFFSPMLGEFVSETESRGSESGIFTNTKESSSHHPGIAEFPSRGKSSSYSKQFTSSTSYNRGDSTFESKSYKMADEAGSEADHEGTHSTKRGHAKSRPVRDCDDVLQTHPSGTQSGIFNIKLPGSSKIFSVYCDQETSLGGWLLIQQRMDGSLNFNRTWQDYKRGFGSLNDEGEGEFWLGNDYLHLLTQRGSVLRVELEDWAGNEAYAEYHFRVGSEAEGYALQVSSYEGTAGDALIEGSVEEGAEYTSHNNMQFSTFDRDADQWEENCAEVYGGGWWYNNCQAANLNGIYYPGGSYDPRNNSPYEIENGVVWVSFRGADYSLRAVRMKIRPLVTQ
T1 sequence (P02675 45-491 partner limits assumed): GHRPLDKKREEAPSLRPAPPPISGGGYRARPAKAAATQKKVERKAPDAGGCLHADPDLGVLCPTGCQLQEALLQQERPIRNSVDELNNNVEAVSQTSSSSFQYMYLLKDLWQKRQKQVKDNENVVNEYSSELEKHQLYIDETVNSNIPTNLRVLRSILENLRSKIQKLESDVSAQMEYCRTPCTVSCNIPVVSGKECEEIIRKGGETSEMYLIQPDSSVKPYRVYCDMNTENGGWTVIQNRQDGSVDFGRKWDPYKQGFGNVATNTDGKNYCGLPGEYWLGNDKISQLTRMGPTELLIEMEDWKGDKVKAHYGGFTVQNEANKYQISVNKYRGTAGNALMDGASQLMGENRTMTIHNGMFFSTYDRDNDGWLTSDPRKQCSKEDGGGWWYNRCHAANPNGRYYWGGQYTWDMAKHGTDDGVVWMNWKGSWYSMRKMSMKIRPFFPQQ
T1 sequence (P02679 27-453 partner): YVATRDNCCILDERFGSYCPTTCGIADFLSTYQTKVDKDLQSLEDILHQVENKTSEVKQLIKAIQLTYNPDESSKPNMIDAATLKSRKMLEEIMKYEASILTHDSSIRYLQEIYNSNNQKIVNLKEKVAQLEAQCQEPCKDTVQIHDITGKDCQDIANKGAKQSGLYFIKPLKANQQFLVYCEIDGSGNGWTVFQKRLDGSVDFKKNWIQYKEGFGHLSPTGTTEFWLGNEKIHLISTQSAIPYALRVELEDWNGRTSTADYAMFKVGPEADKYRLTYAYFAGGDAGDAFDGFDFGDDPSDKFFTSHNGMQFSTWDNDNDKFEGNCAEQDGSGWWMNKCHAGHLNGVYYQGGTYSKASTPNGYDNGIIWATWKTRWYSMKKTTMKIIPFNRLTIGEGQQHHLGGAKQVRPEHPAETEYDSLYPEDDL

T2: fibrin (Homo sapiens, UniProt P02671)
T2 construct: Thrombin cleaves the α and γ subunits of fibrin, exposing fibrinopeptide A (Knob A) and fibrinopeptide B (Knob B)
T2 sequence (P02671 36-866 limits assumed): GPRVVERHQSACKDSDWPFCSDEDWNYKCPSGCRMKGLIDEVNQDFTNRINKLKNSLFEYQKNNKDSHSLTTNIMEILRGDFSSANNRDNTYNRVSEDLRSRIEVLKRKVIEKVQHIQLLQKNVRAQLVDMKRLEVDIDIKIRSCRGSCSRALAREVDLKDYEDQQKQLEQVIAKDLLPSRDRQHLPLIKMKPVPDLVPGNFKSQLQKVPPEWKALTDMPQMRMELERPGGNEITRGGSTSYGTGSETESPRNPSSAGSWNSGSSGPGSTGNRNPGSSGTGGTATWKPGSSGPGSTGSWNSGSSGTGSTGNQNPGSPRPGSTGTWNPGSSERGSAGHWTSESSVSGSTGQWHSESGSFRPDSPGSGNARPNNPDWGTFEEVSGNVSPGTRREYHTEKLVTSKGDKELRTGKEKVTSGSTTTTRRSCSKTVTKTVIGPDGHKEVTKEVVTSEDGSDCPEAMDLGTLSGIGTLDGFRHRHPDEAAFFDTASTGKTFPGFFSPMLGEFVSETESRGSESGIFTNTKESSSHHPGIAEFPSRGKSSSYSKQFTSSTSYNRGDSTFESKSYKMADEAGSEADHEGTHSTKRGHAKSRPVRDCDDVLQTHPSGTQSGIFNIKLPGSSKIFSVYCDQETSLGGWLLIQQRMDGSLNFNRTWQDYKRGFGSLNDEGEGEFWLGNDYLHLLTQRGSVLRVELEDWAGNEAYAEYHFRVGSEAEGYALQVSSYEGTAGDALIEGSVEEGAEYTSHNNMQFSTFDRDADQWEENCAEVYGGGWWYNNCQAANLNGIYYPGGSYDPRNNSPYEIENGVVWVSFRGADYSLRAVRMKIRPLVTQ
T2 sequence (P02675 45-491 partner limits assumed): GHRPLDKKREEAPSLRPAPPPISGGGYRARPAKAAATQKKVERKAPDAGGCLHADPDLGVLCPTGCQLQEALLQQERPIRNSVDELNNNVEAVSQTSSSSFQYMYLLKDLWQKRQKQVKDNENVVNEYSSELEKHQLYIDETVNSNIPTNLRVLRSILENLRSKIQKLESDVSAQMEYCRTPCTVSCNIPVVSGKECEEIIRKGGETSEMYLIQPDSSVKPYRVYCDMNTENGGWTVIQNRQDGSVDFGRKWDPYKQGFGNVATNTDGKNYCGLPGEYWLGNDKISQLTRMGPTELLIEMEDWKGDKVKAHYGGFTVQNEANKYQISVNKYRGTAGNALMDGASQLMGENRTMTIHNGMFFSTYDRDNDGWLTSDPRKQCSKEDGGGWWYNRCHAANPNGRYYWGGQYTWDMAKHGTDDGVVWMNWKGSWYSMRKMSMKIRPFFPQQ
T2 sequence (P02679 27-453 partner): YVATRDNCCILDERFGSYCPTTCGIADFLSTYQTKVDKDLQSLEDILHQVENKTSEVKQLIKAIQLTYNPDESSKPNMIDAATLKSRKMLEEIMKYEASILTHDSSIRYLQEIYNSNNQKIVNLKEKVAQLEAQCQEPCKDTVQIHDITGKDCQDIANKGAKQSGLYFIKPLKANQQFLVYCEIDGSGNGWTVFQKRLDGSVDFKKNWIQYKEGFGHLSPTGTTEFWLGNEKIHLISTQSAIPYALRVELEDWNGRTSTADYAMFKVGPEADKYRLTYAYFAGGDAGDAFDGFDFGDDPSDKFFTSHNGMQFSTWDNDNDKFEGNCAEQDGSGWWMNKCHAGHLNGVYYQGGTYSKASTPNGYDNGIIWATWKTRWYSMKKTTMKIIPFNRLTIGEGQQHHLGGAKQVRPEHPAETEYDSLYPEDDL


Columns and labels:
fibrin aggregates [1] = biological target: T1, fibrin aggregates; assay: synergistic dissolving of fibrin aggregates with urokinase uPA; type: biochemical
fibrin [2] = biological target: T2, fibrin; assay: fibrin aggregation, light scattering / A350 kinetic curve; type: biochemical; settings: 3.3 μM Fibrinogen, 2.5 U/ml thrombin, ±5 mM CaCl2, 25° C., different doses
Procedure: Multifunctional enzyme marker M200PRO detected the light scattering process, and the instrument excitation light was adjusted to 350 nm and emission light to 350 nm. 3.3 μM of Fibrinogen in the control group, 3.3 μM of Fibrinogen and 2.5 U/ml of thrombin in the model group and 3.3 μM of Fibrinogen and 2.5 U/ml thrombin and different dose of Fibrinogen related protein 1 (FGL1). All the above systems were in 20 mM Tris-HCl, pH 7.4, 150 mM NaCl±5 mM CaCl2 solution in a 100 μl/well (96-well plate). The kinetic curve was measured by assaying every minute at 25° C.
Multifunctional enzyme marker M200PRO detected the light scattering process; the instrument excitation light was adjusted to 350 nm, and the emission light was adjusted to 350 nm. 3.3 μM of Fibrinogen in the control group, 3.3 μM of Fibrinogen and 2.5 U/ml of thrombin in the model group, and 3.3 μM of Fibrinogen and 2.5 U/ml thrombin and different dose of fibrinogen structural domain (FD). The above systems were in 20 mM Tris-HCl, pH 7.4, 150 mM NaCl±5 mM CaCl2 solution. The kinetic curves were measured at 25° C. by detecting the A350 absorption values every minute.

fibrin aggregates [3] = biological target: T1, fibrin aggregates; assay: synergistic dissolving of fibrin aggregates with tissue plasminogen activator tPA; type: biochemical; settings: 2 nM tPA plus different doses, added after 1 h of fibrin formation
Procedure: The Multifunctional enzyme marker M200PRO detected the light scattering process, and the excitation light of the instrument was adjusted to 350 nm and the emission light to 350 nm. 3.3 μM of Fibrinogen in the control group, 3.3 μM of Fibrinogen and 2.5 U/ml of thrombin in the model group. The above systems were all set up in 20 mM Tris-HCl, pH 7.4, 150 mM NaCl ±[…] CaCl2 solution in a 100 μl/well (96-well plate). After 1 h of gel-like fibrin formation, 100 μl, 2 nM tissue plasminogen activator tPA and different doses of Fibrinogen like protein 1 (FGL1) were added. Kinetic curves were measured at 25° C. by detecting A350 absorption values every minute.
The control group was a reagent control, and the administered groups were 2 nM tissue plasminogen activator tPA, different doses of Fibrinogen like protein 1 (FGL1) alone groups, and groups in combination with other reagents. Kinetic curves were measured at 37° C. using a multifunctional enzyme marker M200PRO to detect the absorption values of the 510 nm excitation light every minute.
The Multifunctional enzyme marker M200PRO detected the light scattering process, and the excitation light of the instrument was adjusted to 350 nm and the emission light to 350 nm. […] Kinetic curves were measured at 25° C. by detecting A350 absorption values every minute. […]

[4] = test system: thrombin-induced thrombosis model; assay: thrombin-induced thrombosis model, plasmid injection and overexpression; type: in vivo, BALB/c mice; settings: expression plasmid 100 μg per mouse tail vein, overexpression; thrombin 15 U per mouse; deaths within 1 hour
Procedure: Construct FGL1 expression plasmid with pcDNA3.1 vector, inject the plasmid into the tail vein of mice, 100 μg/2 ml PBS/per mouse, extract the plasma of the mice after 18 hours, and detect the overexpressed FGL1 content in the plasma by ELISA;
Thrombin 15 U/200 μl PBS/per mouse was injected into the tail vein for modelling, and the number of mice in each group that died within 1 hour after injection was recorded to calculate the protection rate of Fibrinogen like protein 1 (FGL1) overexpression.
The specific operation methods were the same as those described previously for the protective effects of overexpression of FGL1.

fibrin [5] = biological target: T2, fibrin; assay: fibrin aggregation observed by scanning electron microscopy; type: biochemical; settings: FIG. 12
mouse thrombus = mouse thrombus morphology observed by scanning electron microscopy; type: in vivo, mice; settings: FIG. 14
aggregated fibrin = assay: cleavage of aggregated fibrin; type: biochemical; settings: FIG. 27
From the text: Mutation of certain key sites in this protein's amino acid sequence can also enhance its function of inhibiting thrombosis.

Row | Molecule | dissolving fibrin aggregates together with urokinase uPA (fibrin aggregates [1]; 800 U/ml uPA plus different doses of FGL1) | effect on fibrin aggregation (fibrin [2]) | dissolving fibrin aggregates together with tPA (fibrin aggregates [3]) | survival rate of mice [4] | structure of thrombus formed by fibrin aggregation (fibrin [5]) | dissolving fibrin aggregates together with urokinase uPA (fibrin aggregates [1]; 2800 U/ml uPA plus different doses of FD (800 U/ml in thrombus lysis)) | morphology of mouse thrombus (mouse thrombus) | cleavage of aggregated fibrin, mutant compared to unmutated form (aggregated fibrin)
1 | FGL1: Fibrinogen like protein 1, amino acid sequence SEQ ID No. 1, expressed in eukaryotic cells; given as pcDNA3.1 expression plasmid in Example 6 | synergistically dissolving fibrin aggregates | inhibits fibrin aggregation | synergistically dissolving fibrin aggregates | significantly increasing the survival rate of mice |  |  |  | 
2 | FD: Fibrinogen structural domain protein of FGL1, positions 48-290 of SEQ ID No. 1 (SEQ ID No. 3) (protein) TVIDLGSKRQYADCSEIFNDGYKLSGFYKIKPLQSPAEFSVYCDMSDGGGWTVIQRRSDGSENFNRGWKDYENGFGNFVQKHGEYWLGNKNLHFLTTQEDYTLKIDLADFEKNSRYAQYKNFKVGDEKNFYELNIGEYSGTAGDSLAGNFHPEVQWWASHQRMKFSTWDRDHDNYEGNCAEEDQSGWWFNRCHSANLNGVYYSGPYTAKTDNGIVWYTWHGWWYSLKSVVMKIRPNDFIPNVI |  | inhibits fibrin aggregation | synergistically dissolving fibrin aggregates | significant improvement of survival rate in mice | becomes thinner and looser in structure | synergistically dissolving fibrin aggregates | becomes thinner and looser in structure | 
3 | FD mutant: FD with tryptophan at key positions 204 and 269 mutated to alanine (protein) TVIDLGSKRQYADCSEIFNDGYKLSGFYKIKPLQSPAEFSVYCDMSDGGGWTVIQRRSDGSENFNRGWKDYENGFGNFVQKHGEYWLGNKNLHFLTTQEDYTLKIDLADFEKNSRYAQYKNFKVGDEKNFYELNIGEYSGTAGDSLAGNFHPEVQWAASHQRMKFSTWDRDHDNYEGNCAEEDQSGWWFNRCHSANLNGVYYSGPYTAKTDNGIVWYTWHGAWYSLKSVVMKIRPNDFIPNVI |  |  |  |  |  |  |  | significantly enhanced
